Non-standard residues stand in square brackets, D forms with d. *: point of attachment. X2 = (tetrahydro-2H-pyran-4-ylmethyl)carbamoyl, O=C(NCC1CCOCC1)*; X8 = (2-Hydroxy-1-(hydroxymethyl)ethyl)carbamoyl, O=C(NC(CO)CO)*; (2-amino-2-oxoethyl)carbamoyl = NC(=O)CNC(=O)*; (3-carboxypropyl)carbamoyl = O=C(O)CCCNC(=O)*; Imidazole4carbonyl = O=C(c1cnc[nH]1)*; tBuAla = CC(C)(C)C[C@H](N)C(=O)O; 4Pal = N[C@@H](Cc1ccncc1)C(=O)O; dHyp = O=C(O)[C@H]1C[C@H](O)CN1; Cha = N[C@@H](CC1CCCCC1)C(=O)O; Iva = CC[C@](C)(N)C(=O)O; Aib = CC(C)(N)C(=O)O; Glycolyl = O=C(CO)*

The values below come from patent US9260500B2, “Peptide and use thereof” (Takeda Pharmaceutical Company Limited, priority 2009, dated 2016).

The target in test [1] is T1, human Y2 receptor (Homo sapiens, UniProt P49146).
T1 construct: expressed in transfected cells; membrane fraction
T1 sequence (P49146 1-381): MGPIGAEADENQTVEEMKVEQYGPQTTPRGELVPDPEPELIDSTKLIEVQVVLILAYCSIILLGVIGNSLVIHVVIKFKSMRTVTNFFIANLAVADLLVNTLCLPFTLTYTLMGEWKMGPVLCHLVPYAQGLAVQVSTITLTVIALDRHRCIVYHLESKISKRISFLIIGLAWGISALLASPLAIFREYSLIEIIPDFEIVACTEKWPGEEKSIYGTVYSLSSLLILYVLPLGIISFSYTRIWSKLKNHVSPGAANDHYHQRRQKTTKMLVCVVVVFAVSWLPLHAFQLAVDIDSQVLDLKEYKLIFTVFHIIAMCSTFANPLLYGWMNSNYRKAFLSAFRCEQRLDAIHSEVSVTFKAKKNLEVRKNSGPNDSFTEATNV
Description: Receptor Binding Assay (RBA) for Human Y2, [125I]-PYY displacement on hY2R/CHO membrane fraction. Conditions: IC50 of test compound/IC50 of PYY(3-36) (PYY(3-36) taken as 1). In outline:
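Read-out is [125I]-PYY displacement from membranes of CHO/dhfr− cells stably transfected with human Y2R. Membranes were obtained by disrupting cells in a buffer of 10 mM NaHCO3, 5 mM EDTA and protease inhibitors.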

Test [2] has as its target T1, human Y2 receptor. Description: Human Y2 Receptor G Protein Binding Assay (GBA), [35S]GTPγS. The conditions noted are these: EC50 of test compound/EC50 of PYY(3-36) (PYY3-36 taken as 1), hY2R/CHO membrane fraction. In kind it is biochemical. The procedure, abridged: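 Agonism measured as [35S]GTPγS binding, read by GF/C filtration and scintillation counting after 120 min at room temperature, using human Y2 membranes at 1 μg protein/mL in pH 7.4 Tris/MgCl2/NaCl/GDP buffer. Compound serially diluted 100 μM–1 nM; EC50 normalized to PYY(3-36) (ratio = compound/PYY).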
In general terms: Binding of GTPγS marks nucleotide exchange on a G protein.

A further test concerns male C57EL/6J mice. In words: 3-Days Continuous Subcutaneous Administration Test-1 (food intake suppressing activity). Type of test: in vivo, mouse. Conditions: 0.03 mg/kg/day, subcutaneous Alzet pump, food consumption over 3 days; relative to food intake suppression rate for PYY(3-36) (1 mg/kg/day) taken as 100%. As to the method: (4) Test Method: 3-Days Continuous Subcutaneous Administration Test-1
The food intake suppressing activity of the compound of the present invention was examined by the method described below.
The test compound was dissolved in 50% DMSO so that sustained release would occur at 0.03 mg/kg/day, and the solution was filled in the Alzet Pump (Alzet model: 1003D, sustained release rate: 1 μL/hr, capacity: 100 μL). After the filling, the pump was placed in a 2 mL Eppendorf tube containing 330 μL of physiological saline, and incubated at 37° C. for 2 hours or more. Thereafter, this pump was subcutaneously embedded in the back of each mouse by the method described below. After weighing, each male […] mice at 12-13 weeks of age (25° C., allowed to take food and water ad libitum; 12-hour bright-12-hour dark cycle, lighting turned on at 08:00) was anesthetized with diethyl ether; the skin in the upper back thereof was incised, and the above-mentioned pump was embedded subcutaneously. Thereafter, several drops of penicillin solution (100000 units/mL) were added to the incised part, and the incision was sutured using Michel's surgical needle. This mouse was returned to the rearing cage (reared alone), and given previously weighed food; 3 days later, the amount of remaining food was measured. Food consumption was calculated by subtracting the amount of remaining food after 3 days from the weight of the food given on the day of pump embedding. The food intake suppressing activity of each test compound was expressed as a food intake suppression rate (%) relative to the food intake suppression rate for PYY(3-36) (1 mg/kg/day) taken as 100%.

For “Ac-[D-Pro24, Iva25, Pya(4)26, Cha27,36, Aib28,31, Lys30]-PYY(23-36) (Ac-S[dP][Iva][4Pal][Cha][Aib]NK[Aib]TRQR[Cha]-NH2; SMILES CC[C@](C)(NC(=O)[C@H]1CCCN1C(=O)[C@H](CO)NC(C)=O)C(=O)N[C@@H](Cc1ccncc1)C(=O)N[C@@H](CC1CCCCC1)C(=O)NC(C)(C)C(=O)N[C@@H](CC(N)=O)C(=O)N[C@@H](CCCCN)C(=O)NC(C)(C)C(=O)N[C@H](C(=O)N[C@@H](CCCNC(=N)N)C(=O)N[C@@H](CCC(N)=O)C(=O)N[C@@H](CCCNC(=N)N)C(=O)N[C@@H](CC1CCCCC1)C(N)=O)[C@@H](C)O) [compound No. 237]”, in the test with human Y2 receptor [1], the “RBA IC50 Ratio” value was 2.9. In addition, in the test with human Y2 receptor [2], the “GBA EC50 Ratio” value is given as 2.9. Further, the “food intake suppression rate (%)” value in the test on male C57EL/6J mice is reported as 46%.

For the substance “(3-carboxypropyl)carbamoyl-[D-Pro24, Pya(4)26, Cha27,36, Aib28,31, Lys30]-PYY(23-36) ({(3-carboxypropyl)carbamoyl}-S[dP]R[4Pal][Cha][Aib]NK[Aib]TRQR[Cha]-NH2; SMILES C[C@@H](O)[C@H](NC(=O)C(C)(C)NC(=O)[C@H](CCCCN)NC(=O)[C@H](CC(N)=O)NC(=O)C(C)(C)NC(=O)[C@H](CC1CCCCC1)NC(=O)[C@H](Cc1ccncc1)NC(=O)[C@H](CCCNC(=N)N)NC(=O)[C@H]1CCCN1C(=O)[C@H](CO)NC(=O)NCCCC(=O)O)C(=O)N[C@@H](CCCNC(=N)N)C(=O)N[C@@H](CCC(N)=O)C(=O)N[C@@H](CCCNC(=N)N)C(=O)N[C@@H](CC1CCCCC1)C(N)=O) [compound No. 293]”, the “RBA IC50 Ratio” value in the test with human Y2 receptor [1] is reported as 1.2. Also, in the test with human Y2 receptor [2], the “GBA EC50 Ratio” value came to 0.97. Besides, the “food intake suppression rate (%)” value in the test on male C57EL/6J mice is 51%.

Consider “4-Imidazolecarbonyl-[D-Hyp24, Iva25, Pya(4)26, Cha27,36, Aib28,31, Lys30]-PYY(23-36) (Imidazole4carbonyl-S[dHyp][Iva][4Pal][Cha][Aib]NK[Aib]TRQR[Cha]-NH2; SMILES CC[C@](C)(NC(=O)[C@H]1C[C@H](O)CN1C(=O)[C@H](CO)NC(=O)c1cnc[nH]1)C(=O)N[C@@H](Cc1ccncc1)C(=O)N[C@@H](CC1CCCCC1)C(=O)NC(C)(C)C(=O)N[C@@H](CC(N)=O)C(=O)N[C@@H](CCCCN)C(=O)NC(C)(C)C(=O)N[C@H](C(=O)N[C@@H](CCCNC(=N)N)C(=O)N[C@@H](CCC(N)=O)C(=O)N[C@@H](CCCNC(=N)N)C(=O)N[C@@H](CC1CCCCC1)C(N)=O)[C@@H](C)O) [compound No. 299]”, for which the “RBA IC50 Ratio” value with human Y2 receptor [1] was determined as 1.3. Further, the “GBA EC50 Ratio” value in the test with human Y2 receptor [2] came out at 0.92. The “food intake suppression rate (%)” value with male C57EL/6J mice is given as 46%.

In the case of “(Tetrahydro-2H-pyran-4-ylmethyl)carbamoyl-[D-Pro24, Iva25, Pya(4)26, Cha27,36, Aib28,31, Lys30]-PYY(23-36) (X2-S[dP][Iva][4Pal][Cha][Aib]NK[Aib]TRQR[Cha]-NH2; SMILES CC[C@](C)(NC(=O)[C@H]1CCCN1C(=O)[C@H](CO)NC(=O)NCC1CCOCC1)C(=O)N[C@@H](Cc1ccncc1)C(=O)N[C@@H](CC1CCCCC1)C(=O)NC(C)(C)C(=O)N[C@@H](CC(N)=O)C(=O)N[C@@H](CCCCN)C(=O)NC(C)(C)C(=O)N[C@H](C(=O)N[C@@H](CCCNC(=N)N)C(=O)N[C@@H](CCC(N)=O)C(=O)N[C@@H](CCCNC(=N)N)C(=O)N[C@@H](CC1CCCCC1)C(N)=O)[C@@H](C)O) [compound No. 340]”, the “RBA IC50 Ratio” value in the test with human Y2 receptor [1] is listed as 1.7. In the test with human Y2 receptor [2], the “GBA EC50 Ratio” value was determined as 1.9. For the same substance, in the test on male C57EL/6J mice, the “food intake suppression rate (%)” value is 27%.

Take “(2-amino-2-oxoethyl)carbamoyl-[D-Pro24, Pya(4)26, Cha27,36, Aib28,31, Lys30]-PYY(23-36) ({(2-amino-2-oxoethyl)carbamoyl}-S[dP]R[4Pal][Cha][Aib]NK[Aib]TRQR[Cha]-NH2; SMILES C[C@@H](O)[C@H](NC(=O)C(C)(C)NC(=O)[C@H](CCCCN)NC(=O)[C@H](CC(N)=O)NC(=O)C(C)(C)NC(=O)[C@H](CC1CCCCC1)NC(=O)[C@H](Cc1ccncc1)NC(=O)[C@H](CCCNC(=N)N)NC(=O)[C@H]1CCCN1C(=O)[C@H](CO)NC(=O)NCC(N)=O)C(=O)N[C@@H](CCCNC(=N)N)C(=O)N[C@@H](CCC(N)=O)C(=O)N[C@@H](CCCNC(=N)N)C(=O)N[C@@H](CC1CCCCC1)C(N)=O) [compound No. 292]”: the “RBA IC50 Ratio” value with human Y2 receptor [1] stood at 1.2. The “GBA EC50 Ratio” value with human Y2 receptor [2] was determined as 0.74. The “food intake suppression rate (%)” value with male C57EL/6J mice came to 36%.

Take “Ac-[D-Hyp24, Iva25, Pya(4)26, Cha27,36, Leu(Me)28, Lys30, Aib31]-PYY(23-36) (Ac-S[dHyp][Iva][4Pal][Cha][tBuAla]NK[Aib]TRQR[Cha]-NH2; SMILES CC[C@](C)(NC(=O)[C@H]1C[C@H](O)CN1C(=O)[C@H](CO)NC(C)=O)C(=O)N[C@@H](Cc1ccncc1)C(=O)N[C@@H](CC1CCCCC1)C(=O)N[C@@H](CC(C)(C)C)C(=O)N[C@@H](CC(N)=O)C(=O)N[C@@H](CCCCN)C(=O)NC(C)(C)C(=O)N[C@H](C(=O)N[C@@H](CCCNC(=N)N)C(=O)N[C@@H](CCC(N)=O)C(=O)N[C@@H](CCCNC(=N)N)C(=O)N[C@@H](CC1CCCCC1)C(N)=O)[C@@H](C)O) [compound No. 335]”: in the test with human Y2 receptor [1], the “RBA IC50 Ratio” value stood at 0.97. The “GBA EC50 Ratio” value in the test with human Y2 receptor [2] worked out at 1.5. Also, the “food intake suppression rate (%)” value with male C57EL/6J mice is 27%.

Turning to “Ac-[Aib24,28,31, Pya(4)26, Cha27,36, Lys30]-PYY(23-36) (Ac-S[Aib]R[4Pal][Cha][Aib]NK[Aib]TRQR[Cha]-NH2; SMILES CC(=O)N[C@@H](CO)C(=O)NC(C)(C)C(=O)N[C@@H](CCCNC(=N)N)C(=O)N[C@@H](Cc1ccncc1)C(=O)N[C@@H](CC1CCCCC1)C(=O)NC(C)(C)C(=O)N[C@@H](CC(N)=O)C(=O)N[C@@H](CCCCN)C(=O)NC(C)(C)C(=O)N[C@H](C(=O)N[C@@H](CCCNC(=N)N)C(=O)N[C@@H](CCC(N)=O)C(=O)N[C@@H](CCCNC(=N)N)C(=O)N[C@@H](CC1CCCCC1)C(N)=O)[C@@H](C)O) [compound No. 240]”, the “RBA IC50 Ratio” value with human Y2 receptor [1] amounted to 0.81. In addition, the “GBA EC50 Ratio” value in the test with human Y2 receptor [2] was 1.1. Also, in the test with male C57EL/6J mice, the “food intake suppression rate (%)” value turned out to be 36%.

Turning to “[2-Hydroxy-1-(hydroxymethyl)ethyl]carbamoyl-[D-Pro24, Iva25, Pya(4)26, Cha27,36, Aib28,31, Lys30]-PYY(23-36) (X8-S[dP][Iva][4Pal][Cha][Aib]NK[Aib]TRQR[Cha]-NH2; SMILES CC[C@](C)(NC(=O)[C@H]1CCCN1C(=O)[C@H](CO)NC(=O)NC(CO)CO)C(=O)N[C@@H](Cc1ccncc1)C(=O)N[C@@H](CC1CCCCC1)C(=O)NC(C)(C)C(=O)N[C@@H](CC(N)=O)C(=O)N[C@@H](CCCCN)C(=O)NC(C)(C)C(=O)N[C@H](C(=O)N[C@@H](CCCNC(=N)N)C(=O)N[C@@H](CCC(N)=O)C(=O)N[C@@H](CCCNC(=N)N)C(=O)N[C@@H](CC1CCCCC1)C(N)=O)[C@@H](C)O) [compound No. 339]”, the “RBA IC50 Ratio” value with human Y2 receptor [1] worked out at 1.76. The “GBA EC50 Ratio” value with human Y2 receptor [2] was determined as 2.0. Besides, the “food intake suppression rate (%)” value in the test on male C57EL/6J mice is reported as 51%.

For the substance “Glycoloyl-[D-Hyp24, Iva25,28, Pya(4)26, Cha27,36, Leu(Me)28, Lys30, Aib31]-PYY(23-36) (Glycolyl-S[dHyp][Iva][4Pal][Cha][Iva]NK[Aib]TRQR[Cha]-NH2) [compound No. 338]”, the “RBA IC50 Ratio” value in the test with human Y2 receptor [1] is given as 1.9. In addition, the “GBA EC50 Ratio” value with human Y2 receptor [2] stood at 2.1. In addition, in the test with male C57EL/6J mice, the “food intake suppression rate (%)” value is on record as 27%.

Take “Ac-[D-Pro24, Pya(4)26, Cha27,36, Aib28,31, Lys30]-PYY(23-36) [compound No. 138]”: at human Y2 receptor [1], the “RBA IC50 Ratio” value turned out to be 1.8. Besides, at human Y2 receptor [2], the “GBA EC50 Ratio” value came out at 1.3. The “food intake suppression rate (%)” value in the test on male C57EL/6J mice worked out at 38%.
